This note sets out measurements from patent US20250339554A1 (BROAD INSTITUTE, published 2025).

Data set [1] concerns the molecule itself. Briefly: TEM of capsids purified from E. coli; self-assembly.
Data set [2] concerns the molecule itself. Description: SEC, iodixanol gradient and TEM of particles from HEK293 supernatant; self-assembly into capsids.
Data set [3] deals with the molecule itself. Briefly: electron microscopy; self-assembly.
Data set [4] deals with the molecule itself. Description: size-exclusion chromatography of purified PNMA1; self-assembly.

B1: PNMA7B (other)
chain: MASITACVGNSRQQNAPLPPWAHSMLRSLGRSLCPLVVKMAERNMKLFSGRVVPAQGKETFENWLIQVNEVLPDWSMSEEEKLKRLMKTLRGPAREVMRLLQAANPNLSVADFLRAMKLVFGESESSVTAHGKFFNTLQAQGEKASLYVIRLEVQLQNAIQAGILAEKDANQTRLQQLLLGAELNRDLRFRLKHLLRMYANKQERLPNFLELIKMIREEEDWDDAFIKRKRPKRSEPIMERAASPVAFQGAQPIAISSADCNCNVIEIDDTLDDSDEDVILVVSLYPSLTPTGAPPFRGRARPLDQVLVIDSPNNSGAQSLSTSGGSGYKNDGPGNIRRARKRKYTTRCSYCGEEGHSKETCDNESNKAQVFENLIITLQELTHTEERSKEVPGEHSDASEPQ
notes: Capsids were purified from E. coli; also called ZCCHC18
In the case of B1, in data set [1], the binding result was “binds”.

B2: PNMA2 (other)
chain: MALALLEDWCRIMSVDEQKSLMVTGIPADFEEAEIQEVLQETLKSLGRYRLLGKIFRKQENANAVLLELLEDTDVSAIPSEVQGKGGVWKVIFKTPNQDTEFLERLNLFLEKEGQTVSGMFRALGQEGVSPATVPCISPELLAHLLGQAMAHAPQPLLPMRYRKLRVFSGSAVPAPEEESFEVWLEQATEIVKEWPVTEAEKKRWLAESLRGPALDLMHIVQADNPSISVEECLEAFKQVFGSLESRRTAQVRYLKTYQEEGEKVSAYVLRLETLLRRAVEKRAIPRRIADQVRLEQVMAGATLNQMLWCRLRELKDQGPPPSFLELMKVIREEEEEEASFENESIEEPEERDGYGRWNHEGDD
notes: Self-assembling capsid protein; It was tested as particles from HEK293 supernatant (HA-tag pulldown) and as monomers and capsids assembled in vitro
B2: in data set [2], the binding result is reported as “binds”.

B3: PNMA6A (other)
chain: MAVTMLQDWCRWMGVNARRGLLILGIPEDCDDAEFQESLEAALRPMGHFTVLGKAFREEDNATAALVELDREVNYALVPREIPGTGGPWNVVFVPRCSGEEFLGLGRVFHFPEQEGQMVESVAGALGVGLRRVCWLRSIGQAVQPWVEAVRCQSLGVFSGRDQPAPGEESFEVWLDHTTEMLHVWQGVSERERRRRLLEGLRGTALQLVHALLAENPARTAQDCLAALAQVFGDNESQATIRVKCLTAQQQSGERLSAFVLRLEVLLQKAMEKEALARASADRVRLRQMLTRAHLTEPLDEALRKLRMAGRSPSFLEMLGLVRESEAWEASLARSVRAQTQEGAGARAGAQAVARASTKVEAVPGGPGREPEGLLQAGGQEAEELLQEGLKPVLEECDN
As to B3, the binding result in data set [3] is listed as “binds”.

B4: PNMA5 (other)
chain: MALTLLEDWCKGMDMDPRKALLIVGIPMECSEVEIQDTVKAGLQPLCAYRVLGRMFRREDNAKAVFIELADTVNYTTLPSHIPGKGGSWEVVVKPRNPDDEFLSRLNYFLKDEGRSMTDVARALGCCSLPAESLDAEVMPQVRSPPLEPPKESMWYRKLKVFSGTASPSPGEETFEDWLEQVTEIMPIWQVSEVEKRRRLLESLRGPALSIMRVLQANNDSITVEQCLDALKQIFGDKEDFRASQFRFLQTSPKIGEKVSTFLLRLEPLLQKAVHKSPLSVRSTDMIRLKHLLARVAMTPALRGKLELLDQRGCPPNFLELMKLIRDEEEWENTEAVMKNKEKPSGRGRGASGRQARAEASVSAPQATVQARSFSDSSPQTIQGGLPPLVKRRRLLGSESTRGEDHGQATYPKAENQTPGREGPQAAGEELGNEAGAGAMSHPKPWET
notes: Capsids were purified from E. coli
Turning to B4, the binding result in data set [1] is on record as “binds”.

B5: PNMA7A (other)
chain: MASIIARVGNSRRLNAPLPPWAHSMLRSLGRSLGPIMASMADRNMKLFSGRVVPAQGEETFENWLTQVNGVLPDWNMSEEEKLKRLMKTLRGPAREVMRVLQATNPNLSVADFLRAMKLVFGESESSVTAHGKFFNTLQAQGEKASLYVIRLEVQLQNAIQAGIIAEKDANRTRLQQLLLGGELSRDLRLRLKDFLRMYANEQERLPNFLELIRMVREEEDWDDAFIKRKRPKRSESMVERAVSPVAFQGSPPIVIGSADCNVIEIDDTLDDSDEDVILVESQDPPLPSWGAPPLRDRARPQDEVLVIDSPHNSRAQFPSTSGGSGYKNNGPGEMRRARKRKHTIRCSYCGEEGHSKETCDNESDKAQVFENLIITLQELTHTEMERSRVAPGEYNDFSEPL
notes: also called ZCCHC12
In the case of B5, the binding result in data set [3] is listed as “binds”.

B6: PNMA1 (other)
chain: MAMTLLEDWCRGMDVNSQRALLVWGIPVNCDEAEIEETLQAAMPQVSYRMLGRMFWREENAKAALLELTGAVDYAAIPREMPGKGGVWKVLFKPPTSDAEFLERLHLFLAREGWTVQDVARVLGFQNPTPTPGPEMPAEMLNYILDNVIQPLVESIWYKRLTLFSGRDIPGPGEETFDPWLEHTNEVLEEWQVSDVEKRRRLMESLRGPAADVIRILKSNNPAITTAECLKALEQVFGSVESSRDAQIKFLNTYQNPGEKLSAYVIRLEPLLQKVVEKGAIDKDNVNQARLEQVIAGANHSGAIRRQLWLTGAGEGPAPNLFQLLVQIREEEAKEEEEEAEATLLQLGLEGHF
notes: Self-assembling capsid protein
On to B6, for which the binding result in data set [4] is “binds”.
